According to article PMC6451123, “The G3-U70-independent tRNA recognition by human mitochondrial alanyl-tRNA synthetase” (Nucleic Acids Research, 2019):

Biological target: the molecule itself
Assay: SEC; gel filtration of the purified enzyme; apparent molecular mass from the elution volumes of three standard proteins (apoferritin 443 kDa, yeast alcohol dehydrogenase 150 kDa, bovine serum albumin 66 kDa)

B1: E. coli AlaRS (enzyme, UniProt P00957 1-876, looked up)
chain: MSKSTAEIRQAFLDFFHSKGHQVVASSSLVPHNDPTLLFTNAGMNQFKDVFLGLDKRNYSRATTSQRCVRAGGKHNDLENVGYTARHHTFFEMLGNFSFGDYFKHDAIQFAWELLTSEKWFALPKERLWVTVYESDDEAYEIWEKEVGIPRERIIRIGDNKGAPYASDNFWQMGDTGPCGPCTEIFYDHGDHIWGGPPGSPEEDGDRYIEIWNIVFMQFNRQADGTMEPLPKPSVDTGMGLERIAAVLQHVNSNYDIDLFRTLIQAVAKVTGATDLSNKSLRVIADHIRSCAFLIADGVMPSNENRGYVLRRIIRRAVRHGNMLGAKETFFYKLVGPLIDVMGSAGEDLKRQQAQVEQVLKTEEEQFARTLERGLALLDEELAKLSGDTLDGETAFRLYDTYGFPVDLTADVCRERNIKVDEAGFEAAMEEQRRRAREASGFGADYNAMIRVDSASEFKGYDHLELNGKVTALFVDGKAVDAINAGQEAVVVLDQTPFYAESGGQVGDKGELKGANFSFAVEDTQKYGQAIGHIGKLAAGSLKVGDAVQADVDEARRARIRLNHSATHLMHAALRQVLGTHVSQKGSLVNDKVLRFDFSHNEAMKPEEIRAVEDLVNTQIRRNLPIETNIMDLEAAKAKGAMALFGEKYDERVRVLSMGDFSTELCGGTHASRTGDIGLFRIISESGTAAGVRRIEAVTGEGAIATVHADSDRLSEVAHLLKGDSNNLADKVRSVLERTRQLEKELQQLKEQAAAQESANLSSKAIDVNGVKLLVSELSGVEPKMLRTMVDDLKNQLGSTIIVLATVVEGKVSLIAGVSKDVTDRVKAGELIGMVAQQVGGKGGGRPDMAQAGGTDAAALPAALASVKGWVSAKLQ
notes: Escherichia coli alanyl-tRNA synthetase; calculated molecular mass of 96 kDa; Construct, tags and host are not described; The calculated mass of 96 kDa would fit the whole protein; also called EcAlaRS; source: purified
binding result: binds
